Test results from PMC6469964.
Where two headings read alike, the source gives them in different places.

B1: WT Repeat B RNA (ssRNA)
RNA: GCCCCAGCCCCUGCCCCAGCCCCAGCCCCUGCCCCUGCCCCAGCCCCUGCCCCA
B2: mutant Repeat B RNA (ssRNA)
RNA: GCAACAGCAACUGCAACAGCAACAGCAACUGCAACUGCAACAGCAACUGCAACA

How the values were obtained:
6xHis-HNRNPK [1] = target: T1, 6xHis-HNRNPK (mouse, UniProt P61979 1-463); assay: EMSA
6xHis-HNRNPK [2] = target: T1, 6xHis-HNRNPK; assay: EMSA; remark: listed apart in the source

| Binder | binding result (6xHis-HNRNPK [1]) | binding result (6xHis-HNRNPK [2]) |
| --- | --- | --- |
| B1 | binds |  |
| B2 |  | no binding |
